What follows are sequences tested on Saccharomyces cerevisiae (assay: transcriptional activation domain activity (GFP:mCherry ratio, weighted mean of sorted bins, harmonized to initial dataset scale) (arbitrary fluorescence ratio units); higher = stronger transcriptional activation). Conditions: beta-estradiol 1 µM; induction time 4 h.
In short: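 Barcoded protein tiles fused to an estradiol-inducible synthetic transcription factor were integrated at the yeast URA3 locus, in diploids carrying a GFP reporter. Cultures were diluted 1:5 into SC with 1 uM beta-estradiol, held 4 hours at 30 °C, sorted into 8 bins by GFP:mCherry ratio, and barcodes sequenced. Tiles under 50 reads were discarded. Activation activity is the read-weighted mean of bin median fluorescence, averaged across barcodes, then linearly mapped onto the initial dataset scale.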

Point of comparison: “SDNQPDFVDFQELLDNDTLGNDLLETTAVLKEFELLHDDSVSATATSNEIDLS”, “transcriptional activation domain activity” value 115000. Against it:
- QRIIIGSKLILLTRSLLICLLWSLKMAVLDLLAKLMLNMPFERKLIYTLWAIL — lower, 41600
- ENNDQFNNKTRKRKRRMSSTSSTSKASRKNSISRKNSAVTTAPAQKDDVENNK — lower, < 6570
- MLCLTYLVFLRVYGHLLWVELGLFFFSFSKSNYHVIRHGLPFFCYNGAWMEFL — lower, 56900
- GEEGKAEEAAGEEGKAEAEAGAESEKSAEGEGEASAEEGASGEEAAGEKAAGE — lower, 26800
- KHLEAADGVEDDHRSTVIDQGNDELLVKWASDEGIIEKKPQGRFRLILGGGAS — lower, 70100
- GKDAEAADKPIEGKDAGDVEMNDAPEKEPEAEAAKPKGRGGRPKKVVPAAAAP — lower, 23900
- MCISRYWICLGKGSVLGYHSFIICFYLGLVEMMGYPLFAFFSLLFIRFLLFLS — lower, 43700
- GDSTNGNNSPVEDEANLRRKAKKRREKEREREEKKRVGRREKAKKTNGGEKQG — lower, 27000
- AIATPVCAAGDFPGNLLLHHSITIPFIYVTLSFFYIFALFLFFLLSIFLVAWL — lower, 50300
- DETAPATEEASKEGEAAEEAAPAAEAEETKTEEAPNKEEGTKRRSASRKRVSI — lower, 37200
- MHFVWLYHPFAKYGDFYLILSFTYLRTITDCCSCCIMTTYGMLRIFPIFVILV — lower, 79100
- KSKSSRSSRRREGEEDDDRRRRRHRHRSRSHSRGRDGDNDDPKEKRRSRRHDD — lower, 38400
- KLKSLVAIVWILDFVHLILICQAIYHYLITNWGTTQRFCSPPRFSICTLCLSL — lower, 55200
- NLNFMPINNNYNNSGSNINNNDNVKLPSNFKNYYDPPMSSLDISMDVPDIFGS — lower, 94300
- MYCMRYFVPLLLLPFPDSPPIFVILFLISFFLHQKPCIYCTLLLFALFSSTCF — lower, 57700
- GPTIRHEMNLFHVYGRRNPHLRLMISLIYVWMRSWGVKEMSPRTLCLLLIRFF — lower, 48600
- DSHYILQGVDAAIQILKLCRVCLHPRAVLSYLPHSFYLYLCYAAVFLLKVVFV — lower, 61700
- MPTTSHSLFLRYVFLFVAWLVFREVFALMGFFLLLIFLIPKIVKVPFFFFFFL — lower, 55000
- SILASLGFIVCGVYIWVTSHWNPQHVRDGLPLLYFSGHLRCKIYSIVLNLFVT — lower, 69900
- VVCRYYHLMMGRTFILLIFTQTLSGLVVYHGVCRSWEVLGCIAHLIKGGIFFF — lower, 55800
- KGGEYHRRKGDETSSQGQMGKKVKSEKGEEEKERRKKKERVKQHVVNVRVAEQ — lower, 41900
- VLLHLNRYMSIFGNLQILILVGLTSCCRTSHIYHMVLLLVQQHTLHRRYVLHA — lower, 69400
- WMIWFRVGFACIFSSCVFLRVYGLYRIFIQRKPFTRYSFYVPFTIFTVCVFIF — lower, 69400
- GGGGAGEEDAKGKARADEDVRESSRAKSTSKRKTSAAASGSESDSASSSSSYS — lower, 14900
- WTGWEGGRYLPFFFFPFFFFFATCCFSLFMILFFVFFFPGRISISFRLLLFFL — lower, 43000
- MCMYFFTFFFFTFLFFFTFFVFFFFVSMEYLPTLLALIYIYYMSLPTSAQCSN — lower, 35900
- YFVLLPPTFILLAFPLLVWEFCWLSSSDFLCLLSMGFLFISLSFFFFFFLGNW — lower, 40400
- AADADEDDEDAPKKAPKKPAKRGRKKADDDDEEPEEEAQPAKKKAKGGRKAKK — lower, 47700
- SNVFPTQLLARHQKEIKRFKRMLAIVRWFEVCFALLRIKYLMKLFWFSVEFCN — lower, 50000
- AGGEAAAGGEAAAGEGAAAGGEAKAGEKAAGEGAKAGEEAAGEAKVEAAKPAA — lower, 18400
- MNTNWNILPPVLFKWGPSLMVLSFNKPYFCSALPWYLYLCIFMCCLTHLYYFI — lower, 70600
- HSLLRGDKETGVCVIEMTPFKQGIDSGAIYGKKTVLVVFCLVKLLLSQAVPES — lower, 28600
- MAPPFLGHFFGLYPSIMIRFPCLLLYRFATVYLGVLLFPFSILFFILFIFYFF — lower, 34200
- RSSRSKRRSRSPHDSSHKRRSRKEGRRPPSRERDEEDGEKRRHRSSRSHRRRR — lower, 11400
- GKEKKDGEAAAPAAANHAPAEASAPAQTSSRPEGGERGRGRGRGHKGERGGAG — lower, 43200
- MYSFRLISLMLLSAIALVAANPLMIRIWPLRGGSLTFNLLLLFRWLDFQFVSH — lower, 59900
- LIVIRIVNPVIMYFFISCFYSLLSVAFQVPFNRYYGSSGFVIYWMMSWLAMCA — lower, 55900
- LRPGRQAQRRHVLALQARPALLLPPDLDARAVQPAHRQPQGPEEGGRAGPARP — lower, 15100
- MTLTFWFFLPLLDILSGLKFEFLPMLVFYFYFFPFASFCRFEALDIWTWILII — lower, 48100
- ADEEGEGEAEEKPKRKRATKKKVEEEDDEEEEEEEKPKPKARAKAGSSKKAAT — lower, 21100
- FCYVVVLGRVLIRFGGYQVLTLWRSCMRRLPKLGDSIWSRVFLRCVSCMSLFL — lower, 62000
- ESPSQINDFIPQKLIIEPNTLELNGLTEETPHDLPKNTAKGRDEEDFPLDYFP — lower, 55200
- DPFVEQNNDITTALLNNELFQGPSLSDEVTDWFGASEDIGLEFVEPWTELIEQ — higher, 144000
- HFILLHCNQLKNWFNNNQITWVIPKIGKCSHKIQVVSSHVLRAVHLFSQKYYL — lower, 58700
- TSPAPASSANGPAPPRRKRQATTAACRACRKRKSKCDGARPTCSVCRDRKTKC — lower, 13100
- NANVKLCVDGKWDKMCLMCTGDGTSSGVWRLCERILGSARCVIESIGCWVVLC — lower, 60600
- KESTTPSGTIKEVEGGEKGEEGTVAKQNNGEKGLVKSAGRNFLVDERVLRQSF — lower, 40600
- NFFLKDNAPVLQEYLAVFRHLLSFHDPELSSHLDTIGFMPDLYAIPWFLTLFT — lower, 16300
- WLLCQVPTRNLGVLVFDSSKRYHLVHPDSPTGEQRHTQFVIVLFIVAFIRGVA — lower, 47700
- EASPQPSPQPESQPAPEASPQPEPQPSSKPSPQPESQPVPEASPQPEPQPSPQ — lower, 18200
- GEAGEAGEAGAEGTATEEREEEEEQQQKKEERKRKRKRKQQQGSGKVTVAAAK — lower, 45000
- TSIFGSNNNNTGSGMFGGNNNTNTGTPFGGGGGFGTNTNTNTAFGSKPFGSST — lower, 17500
- NLCELIYLDRLCGCCLFSMRSVVFIDLLSTLIQPVTVVYIVYLIYLVAANGAT — lower, 28000
- PTWGLVLRLGCGIVYIVIFLVYVGLGGVFPGRYTYWGLSADNAGIMVYVLLCV — lower, 60400
- SWNAPSLTNSWDSPPGNRTGAVTIGDESINGSEMPDFSLDLVSNDRQTGLEAL — lower, 32800
- LSRAGTGGRAGTAKEAGEAAGGGEQQGEEAGGKEEAGAGAEGEAENGTGGKRN — lower, 23400
- DSSEEDSEDEKPKAVQVKAIAKASSSSDSDDSSSEDDAPSKSVVAAAKKVSPS — lower, 22200
- GVNAIGRRSSFQDVEAGKGGLIVPLRHLPPRGEDAGLVLQVHLNRAVSKLARM — lower, 65200
- DPEEVQGGKQRAEGNQGGGGRQGRRGPRGAEGQDHPGVQRPHRRPRRGHQAHL — lower, 33200
- ACFLGYPIQIDPTFTDFELLSSFSGVIDSCAQSDTLWDFNSFDVAAVLSPLLD — higher, 143000
- GKISKDYHHVPSLASISSLQSSQSLDQNFSIPQSPPLSSMSFNFLTGNINETN — lower, 43600
- RPVLDVALAAGEEDLSSKPRCQRCRKSKKGCDRQRPCGRCRDAGIGIEGCISE — lower, 31500
- MFCLRSWIPILFFLSVSNASPIYLILFVVTTYLLNRPCVYCSLLLGVLVLALF — lower, 38500
- ACLFTMELILHNIYAVAIRSAGSPVWSSFTPFELSMFGFWNLIIVWMKLLLPW — lower, 54700
- APSPPPAPEPVPEMKAIEAAPEPEPEPEPEDKWDVPVVAKKGKKAKKGAASQA — lower, 25000
- STTSDGAPGSEVPLKRRPGRPKGSKTKKRKIDTAPVPIAAAGTQPAASSTTAP — lower, 35700
- MVFIIFFAAFYTLFLYHSSLFFTLPFASIFFLLFFVRFIFFISVFLLFFLLGL — lower, 51100
- DHLLKSLYMLIHTTLKCIKNLEFLGFYLFNSGFSSVFDECVFPYIRTLRCHQP — lower, 65000
- EETKAEEPKATEAATTSTAPAAATEATTAATAETTTEEAKPATNGSTAAADAA — lower, 23200
- SLQEIDKMRVDGKFVDSEGIGRRPICVSSSILKQVLLYLLRRCYGLIYRLLSS — lower, 33800
- FFFFHFFFFWSSLRHIFQVLILGALGFLFFHFSFFIFHFSFFIFHFHFLFFFS — lower, 50400
- MYLPKPGWLHVAGWLFILSLYLSIYIISYLISSYICNLCSFFCYLLLACILSF — lower, 49600
- SPKMYESFLRIDLRNLEVRVLGMGATTSDVRLANIVVQYLVKGWLPQTAYATL — lower, 71200
- GGVAAREAKRKGRGRGEEEGRGAVCGGRGARGGARGRGGGGGRTGRAGGARAL — lower, 23500
- FFLCTFTFFSFCLHLFLFLCVYRLYPTFCSVYPFFPFPILLLFIWLFMWFFIS — lower, 71800
- RANMSTQKLAASASRQINAVVVSAGLMEKTVKVRIGQQKWNAHIRKHFNRTSH — lower, 44400
- EKKEKSSRKSTSRAAANGTAEKASKGEASSKKSRGASRPRSPKKTRSPAGRPA — lower, 24500
- MREGWVWISEYRVLCLYFFFFLFLFFSNSFFFSPIYLFLFFTLFLVCLLCFRP — lower, 53400
- MLYINHFLHSPRGLVEQAKSLFFLYLSFFFLFFFFPFISFHFSFNVPFSLNCI — lower, 50900
- MAVETVGLGWRTLRSLIIEFILFYCLFTALGYNSLSLLNYRPWIFFSFLFCLF — lower, 57500
- IMCQWVKNLKERLLKMPPALRICLADHVLKFVIPKLHILGHLKLCQELFSLLY — lower, 47100
- GAPHHNQFLDLNLGLEVYKETGRRVQFLVAAKSMQRKFVGLCCRLIHAIPVVR — lower, 67400
